Test results published in paper PMC4234207.

What follows are sequences tested against T1, GST-FKH-FoxA2 (Rattus norvegicus (rat; cloned from genomic DNA)) (UniProt P32182) (assay: competition EMSA). Settings: 25 mM HEPES pH 7.6, 150 mM KCl, 0.2 mM EDTA, 0.2 mM EGTA, 10% glycerol, 1 mM DTT, 3 ug protein, 1 ng 32P-TTR probe, 2/5/20 ng competitor, on ice 15 min; 4% ….
T1 sequence (P32182 145-290, looked up): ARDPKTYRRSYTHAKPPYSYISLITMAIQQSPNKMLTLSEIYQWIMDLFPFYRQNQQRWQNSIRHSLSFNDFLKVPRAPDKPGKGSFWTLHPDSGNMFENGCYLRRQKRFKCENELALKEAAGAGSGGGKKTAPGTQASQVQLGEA

Sequence | binding signal (EMSA score (TTR=1))
CAGTAAACTCTGCTGTGTGTACAGATAACATTAC (double strand) [non-site chr7:119551431] | 0.22
CAGTAAGCCTCGCGTTGTTTGGTTAAGGGGCAGG (double strand) [FoxA BS chr1:7078701] | 0.83
CAGTAAGGTTATTATTATTTGTTTTATTTTGTTT (double strand) [FoxA BS chr10:75378448] | 0.83
CAGTACCCCAGGATTTGTGGGCTGTGGGTGTGGC (double strand) [non-site chr7:44970992] | -0.11
CAGTACTAGATGTTTACTTTAAGGGACCAG (double strand) [FoxA BS chr9:107745824] | 1.3
CAGTACTCATCCTGCTATTGACAGTCGGATATAT (double strand) [FoxA BS chr7:29476412] | 0.4
CAGTAGAGGTCTTCCTCTTTGCCCATGTTGTGGG (double strand) [non-site chr7:26648074] | -0.16
CAGTAGCCCCTCCTGTGTTGTCTTCCAGTAGATG (double strand) [non-site chr7:59095749] | 0.09
CAGTAGCGCCTGCAGTTTACCTTGGCTCCG (double strand) [non-site chr9:102865800] | 0.13
CAGTAGGGTCAAGGTAGTTTGCATATCTTCCAAC (double strand) [non-site chr7:83767529] | 0.24
CAGTAGGTTTCTCTATTGACTCTATTGCCT (double strand) [FoxA BS chr11:45798706] | 0.49
CAGTATGTGTTGTTGTTGACTTTAAGGTCG (double strand) [FoxA BS chr9:107420590] | 0.93
CAGTATTGGACATTGTTTATTTGTTTTGCC (double strand) [FoxA BS chr1:141375708] | 1.21
CAGTATTTATTTGTATGTATTTTGAGACAG (double strand) [FoxA BS chr3:116606401] | 0.38
CAGTCACCGTTGTTTGTTCTGTGACAAATA (double strand) [FoxA BS chr19:56926814] | 0.68
CAGTCAGCTCCCATGTTTACCAGGCCTTGA (double strand) [FoxA BS chr6:121311851] | 0.57
CAGTCAGTGGAAGGCTGTTAACTGTGCCTGCTGC (double strand) [non-site chr13:40870570] | -0.02
CAGTCATATAGGCTCTGTTTGAACATTAATTAAC (double strand) [FoxA BS chr15:82621996 b] | 0.31
CAGTCCAGACTCGCTTGTTGACAGAGCTCAGGGC (double strand) [FoxA BS chr12:77880754 a] | 0.38
CAGTCCAGGGGACCTGTTTACCTTACATAG (double strand) [FoxA BS chr17:45901267] | 0.7
CAGTCCCGGGCCTGTTTGCTTTTCCATACA (double strand) [FoxA BS chr12:8003233] | 0.5
CAGTCCCTATCTGTGTTTACAGCTGGTTTC (double strand) [non-site chr5:139643316] | 0.18

Sequence | binding signal (EMSA score (TTR=1))
CAGTCCCTTCCCTTATTTACATTCCCGAGA (double strand) [FoxA BS chr7:140707466 a] | 1.13
CAGTCCGGGATTGGCTGTTTGTAATCTGCTCGAC (double strand) [non-site chr17:74394072] | 0
CAGTCCTGGCTTTCCTGCTTACCCAACAACCGCT (double strand) [non-site chr3:94456673 b] | 0.07
CAGTCCTTGTGCTTATTTACATACCCCGCC (double strand) [FoxA BS chr19:12527263] | 0.84
CAGTCGTCTTCCCTGTGTGCTTACTATGCA (double strand) [non-site chr12:85340663 b] | 0.07
CAGTCGTGACCTTTGTTGACTCGCGTCAGT (double strand) [FoxA BS chrX:17319260] | 0.53
CAGTCTCCCGGCCGGGGTTGACTCTCTCTGAGCT (double strand) [non-site chr8:87127281] | 0.11
CAGTCTCCTCCATTGTGTACACTCCCCCTC (double strand) [FoxA BS chr7:44717527] | 0.49
CAGTCTCTGAGTGACTGTTTTCTGTAATACCCAA (double strand) [non-site chr15:91019750] | 0.01
CAGTCTCTGCCCCTCTATTGGTCTAGCTCTCCAA (double strand) [non-site chr16:22806861] | 0.06
CAGTCTGAGAAACCTTGTTGATCTCAGGCAACCC (double strand) [non-site chr8:13025407 a] | 0.07
CAGTCTGCCCTGCTGTTTACCAGCTGGAGA (double strand) [FoxA BS chr3:94456673 a] | 0.29
CAGTCTGCGGCGCCAGATTTACACAGCGCGAGGA (double strand) [FoxA BS chr7:15773405] | 0.25
CAGTCTTGAGGCCTGTTTACCGTCCAGTTA (double strand) [FoxA BS chr19:44039737] | 0.43
CAGTGACAACCAATGTTGACTTAAAACCTT (double strand) [FoxA BS chr4:61847631] | 0.82
CAGTGAGGCGGGGTGTTGACTCTTACGCCA (double strand) [FoxA BS chr8:112454327] | 0.33
CAGTGCAACAAGTTGTTTACACTCTTCATT (double strand) [FoxA BS chr6:34792983 a] | 0.82
CAGTGCGGCGCTGTGTTTACCTTCCGGGAG (double strand) [FoxA BS chr11:85168610] | 1.08
CAGTGCGTGCATTGGTGTTCGCTCAGAGCGGGAC (double strand) [non-site chr6:5446118] | 0
CAGTGCTAGATCCAGTTTTTACACAGAAAGTTTC (double strand) [non-site chr8:13025407 b] | -0.06
CAGTGGAACCTCTGATGTTGACTTTCCCTTGATT (double strand) [FoxA BS chr15:82621996 a] | 0.38
CAGTGGACCTTATTTACTTTCCTTAGCAAG (double strand) [FoxA BS chr12:85340663 a] | 0.99

Sequence | binding signal (EMSA score (TTR=1))
CAGTGGATGCCTCTATTTGTTTAATCACAG (double strand) [FoxA BS chr9:122199103] | 1.1
CAGTGGCATCCGACTGATTTACTGAGCTGGTTCC (double strand) [non-site chr7:140707466 b] | 0
CAGTGGGACCTGTCTTGTTGACCCATCACGTCAC (double strand) [FoxA BS chr17:32151628] | 0.47
CAGTGGTCACCCTTTGGTTTACCTTTTAGGAACA (double strand) [FoxA BS chr8:96902217 a] | 0.52
CAGTGTGAGTGTGTGTGTGTATACAGCGTGAGTC (double strand) [FoxA BS chr15:59478046] | 0.26
CAGTGTGTTCCTATGTGTACACAGTACTTG (double strand) [FoxA BS chr4:3604382] | 0.91
CAGTGTTCAGAGCTGTTTACTTGAACGCGA (double strand) [FoxA BS chr6:34792983 b] | 0.53
CAGTGTTGCCCGTCGTATTTGTATATGGTTTCCT (double strand) [FoxA BS chr10:79387812] | 0.58
CAGTTATCAATGTTTGTTTACCTTGTGGCT (double strand) [FoxA BS chrX:6878436] | 1.65
CAGTTATCTGTACTTTATTTTCAAACGCTATAAT (double strand) [non-site chr8:96902217 b] | -0.01
CAGTTCACCTGAGGGTGTGTACACAGTCTCTCAG (double strand) [FoxA BS chr7:100410756] | 0.56
CAGTTCATGCCACAGTTTACTCTGGTCCCT (double strand) [non-site chr1:154160175] | 0.24
CAGTTGCCTTTCTGTTTGTTGTTTTGGAGG (double strand) [non-site chr5:30822343] | 0.21
CAGTTGCGCCCCGGGTGTTGGCAGCGAGAAGTGG (double strand) [non-site chr12:77880754 b] | 0.03
CAGTTGCTGGCCTAATGTGGACACAGGGGGTTCC (double strand) [FoxA BS chr3:83135377] | 0.64
CAGTTGGAGTAGTTATTTACCTTAGCAGCC (double strand) [FoxA BS chr16:13816438] | 0.81
CAGTTGGCCCCAGTATTTACATTTCTAACA (double strand) [FoxA BS chr15:54962925] | 0.92
CAGTTGGGCATATTTGCTCAGAACCTGGTA (double strand) [FoxA BS chr1:159362347] | 0.37
CAGTTTCAAAGCTTGTTGACGGAGAGAAAT (double strand) [non-site chr17:25500984] | 0.2
CAGTTTGGGTCAATATTTATTCTTTCATTT (double strand) [FoxA BS chr19:38189585] | 0.48

Same assay, conditions: negative control; 25 mM HEPES pH 7.6, 150 mM KCl, 0.2 mM EDTA, 0.2 mM EGTA, 10% glycerol, 1 mM DTT, 3 ug protein, 1 ng 32P-TTR probe, 2/5/20 ng competitor, on ice 15 min; 4% …

Sequence | binding signal (EMSA score (TTR=1))
CGATCAAAACTAGGTCAAAGGTCA (double strand) [PPAR] | 0
